According to US20260191937A1, “AGENTS, COMPOSITIONS AND METHODS FOR MODULATING IMMUNITY” (The University of Queensland, priority 2022, published 2026):

T1: 6PGD (Mus musculus, UniProt Q9DCD0)
T1 construct: host or cells: HEK293
T1 sequence (Q9DCD0 1-483): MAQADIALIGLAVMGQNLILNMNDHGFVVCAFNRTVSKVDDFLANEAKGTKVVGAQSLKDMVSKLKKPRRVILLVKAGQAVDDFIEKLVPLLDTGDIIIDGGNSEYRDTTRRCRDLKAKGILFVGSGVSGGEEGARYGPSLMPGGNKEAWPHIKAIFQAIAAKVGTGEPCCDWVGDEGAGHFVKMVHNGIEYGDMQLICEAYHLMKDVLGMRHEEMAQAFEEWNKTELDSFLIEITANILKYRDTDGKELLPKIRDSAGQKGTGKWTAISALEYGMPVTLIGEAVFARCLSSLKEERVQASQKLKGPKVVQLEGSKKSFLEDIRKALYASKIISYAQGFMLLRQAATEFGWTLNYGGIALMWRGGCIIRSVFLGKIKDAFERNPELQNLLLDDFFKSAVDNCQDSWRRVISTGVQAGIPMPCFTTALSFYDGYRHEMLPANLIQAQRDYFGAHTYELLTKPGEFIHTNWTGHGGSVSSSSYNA


Target: T1, 6PGD
Assay: 6PGD enzyme activity in lysates of HEK293 cells co-transfected with 6PGD and HDAC7 constructs
Assay type: biochemical
Settings: molar ratio 1:1 (6PGD:HDAC), 24 h after transfection
Method: FIG. 19 is a graphical representation of HDAC7 increasing 6PGD enzyme activity in HEK293 cells. HEK293 cells were transfected with expression constructs encoding (A-B) 6PGD and/or HDAC7, (C-D) 6PGD and HDAC7 wild type (WT) or HDAC7 enzyme-dead (ED), (E-F) 6PGD and full-length (HDAC7), N-terminal HDAC7 (N-HDAC7) or C-terminal HDAC7 (C-HDAC7) at a molar ratio of 1:1 (6PGD:HDAC). After 24 h, cells were lysed and the enzymatic activity of 6PGD in lysates was measured. […] Statistical analysis was performed using repeated measure one-way ANOVA followed by Dunnett's multiple comparison (ns, not significant; * p<0.05; ** p<0.01). (B, D, F) Levels of 6PGD (Flag), HDAC7 (V5) and GAPDH expression in cell lysates were assessed via western blot.
6PGD activity can be enhanced by co-delivering HDAC7. HEK293 cells were plated in 12-well plates and incubated overnight at 37° C. The Lipofectamine 2000 (Invitrogen) transfection reagent was prepared in OptiMEM to a final concentration of 1 μg DNA per μL and incubated at room temperature for 5 min. Plasmid DNA was diluted in OptiMEM (Gibco) and then mixed with Lipofectamine 2000, after which the transfection mixture was incubated at room temperature for 30 min. Prior to transfection, cell culture media was replaced with OptiMEM, after which the transfection mixture was added into cells. Cells were then incubated at 37° C. for 6-8 h before being supplemented with fresh OptiMEM. 24 h post-transfection, culture supernatants were discarded, and cells were briefly washed with DPBS and lysed for different analyses.
Mouse HDAC7 (the unspliced isoform lacking the first 22 amino acids), an enzyme-dead (ED) mutant HDAC7 carrying an H-to-A mutation (Das Gupta et al., 2020, Cell Rep. 30:2712-2728.e2718), N-terminal HDAC7 (N-HDAC7, amino acid 23-504, comprising a PHA03247 super family motif corresponding to the herpes simplex virus-1 UL36 large tegument protein, which is known to comprise deubiquitinating activity) and C-terminal HDAC7 (C-HDAC7, amino acid 498-938) were cloned in pEF6/V5-His-TOPO vectors. Mouse 6PGD was cloned in a pCMV expression vector (MG53165-CF, Sino Biologicals). HEK293 cells were transiently transfected with expression constructs encoding 6PGD and HDAC7 at a molar ratio of 1:1. 24 h after transfection, cells were lysed and lysates were subjected to 6PGD activity assays using an in vitro assay (Abcam), as per the manufacturer's instructions. The enzymatic activity was determined by measuring absorbance at 460 nm in kinetic mode using a plate reader (Infinite M Plex, Tecan).

Molecule	enzymatic activity of 6PGD relative to cells transfected with 6PGD alone	enzymatic activity of 6PGD relative to cells transfected with 6PGD alone (listed as WT HDAC7)
HDAC7: Mouse HDAC7 lacking the first 22 amino acids, SEQ ID NO:13, expression construct (protein, listed as Mus musculus) MDLRVGQRPTVEPPPEPALLTLQHPQRLHRHLFLAGLHQQQRSAEPMRLSMDPPMPELQGGQQEQELRQLLNKDKSKRSAVASSVVKQKLAEVILKKQQAALERTVHPSSPSIPYRTLEPLDTEGAARSVLSSFLPPVPSLPTEPPEHFPLRKTVSEPNLKLRYKPKKSLERRKNPLLRKESAPPSLRRRPAETLGDSSPSSSSTPASGCSSPNDSEHGPNPALGSEADGDRRTHSTLGPRGPVLGNPHAPLFLHHGLEPEAGGTLPSRLQPILLLDPSVSHAPLWTVPGLGPLPFHFAQPLLTTERLSGSGLHRPLNRTRSEPLPPSATASPLLAPLQPRQDRLKPHVQLIKPAISPPQRPAKPSEKPRLRQIPSAEDLETDGGGVGPMANDGLEHRESGRGPPEGRGSISLQQHQQVPPWEQQHLAGRLSQGSPGDSVLIPLAQVGHRPLSRTQSSPAAPVSMLSPEPTCQTQVLNSSETPATGLVYDSVMLKHQCSCGDNSKHPEHAGRIQSIWSRLQERGLRSQCECLRGRKASLEELQSVHSERHVLLYGTNPLSRLKLDNGKLTGLLAQRTFVMLPCGGVGVDTDTIWNELHSSNAARWAAGSVTDLAFKVASRELKNGFAVVRPPGHHADHSTAMGFCFFNSVAIACRQLQQHGKASKILIVDWDVHHGNGTQQTFYQDPSVLYISLHRHDDGNFFPGSGAVDEVGTGSGEGFNVNVAWAGGLDPPMGDPEYLAAFRIVVMPIAREFAPDLVLVSAGFDAAEGHPAPLGGYHVSAKCFGYMTQQLMNLAGGAVVLALEGGHDLTAICDASEACVAALLGNKVDPLSEESWKQKPNLSAIRSLEAVVRVHRKYWGCMQRLASCPDSWLPRVPGADAEVEAVTALASLSVGILAEDRPSERLVEEEEPMNL	significantly increases 6PGD activity	significantly increased the enzymatic activity of 6PGD to a similar level
ED HDAC7: enzyme-dead mutant HDAC7 carrying an H-to-A mutation, SEQ ID NO:14 (protein) MDLRVGQRPTVEPPPEPALLTLQHPQRLHRHLFLAGLHQQQRSAEPMRLSMDPPMPELQGGQQEQELRQLLNKDKSKRSAVASSVVKQKLAEVILKKQQAALERTVHPSSPSIPYRTLEPLDTEGAARSVLSSFLPPVPSLPTEPPEHFPLRKTVSEPNLKLRYKPKKSLERRKNPLLRKESAPPSLRRRPAETLGDSSPSSSSTPASGCSSPNDSEHGPNPALGSEADGDRRTHSTLGPRGPVLGNPHAPLFLHHGLEPEAGGTLPSRLQPILLLDPSVSHAPLWTVPGLGPLPFHFAQPLLTTERLSGSGLHRPLNRTRSEPLPPSATASPLLAPLQPRQDRLKPHVQLIKPAISPPQRPAKPSEKPRLRQIPSAEDLETDGGGVGPMANDGLEHRESGRGPPEGRGSISLQQHQQVPPWEQQHLAGRLSQGSPGDSVLIPLAQVGHRPLSRTQSSPAAPVSMLSPEPTCQTQVLNSSETPATGLVYDSVMLKHQCSCGDNSKHPEHAGRIQSIWSRLQERGLRSQCECLRGRKASLEELQSVHSERHVLLYGTNPLSRLKLDNGKLTGLLAQRTFVMLPCGGVGVDTDTIWNELHSSNAARWAAGSVTDLAFKVASRELKNGFAVVRPPGHAADHSTAMGFCFFNSVAIACRQLQQHGKASKILIVDWDVHHGNGTQQTFYQDPSVLYISLHRHDDGNFFPGSGAVDEVGTGSGEGFNVNVAWAGGLDPPMGDPEYLAAFRIVVMPIAREFAPDLVLVSAGFDAAEGHPAPLGGYHVSAKCFGYMTQQLMNLAGGAVVLALEGGHDLTAICDASEACVAALLGNKVDPLSEESWKQKPNLSAIRSLEAVVRVHRKYWGCMQRLASCPDSWLPRVPGADAEVEAVTALASLSVGILAEDRPSERLVEEEEPMNL	significantly increased the enzymatic activity of 6PGD to a similar level	
C-terminal deacetylase domain of HDAC7: C-terminal HDAC7, amino acid 498-938, SEQ ID NO:23 (protein, listed as Mus musculus) MVLNSSETPATGLVYDSVMLKHQCSCGDNSKHPEHAGRIQSIWSRLQERGLRSQCECLRGRKASLEELQSVHSERHVLLYGTNPLSRLKLDNGKLTGLLAQRTFVMLPCGGVGVDTDTIWNELHSSNAARWAAGSVTDLAFKVASRELKNGFAVVRPPGHHADHSTAMGFCFFNSVAIACRQLQQHGKASKILIVDWDVHHGNGTQQTFYQDPSVLYISLHRHDDGNFFPGSGAVDEVGTGSGEGFNVNVAWAGGLDPPMGDPEYLAAFRIVVMPIAREFAPDLVLVSAGFDAAEGHPAPLGGYHVSAKCFGYMTQQLMNLAGGAVVLALEGGHDLTAICDASEACVAALLGNKVDPLSEESWKQKPNLSAIRSLEAVVRVHRKYWGCMQRLASCPDSWLPRVPGADAEVEAVTALASLSVGILAEDRPSERLVEEEEPMNL	does not activate 6PGD	
N-terminal domain of HDAC7: N-terminal HDAC7, amino acid 23-504, SEQ ID NO:15 (protein, listed as Mus musculus) MDLRVGQRPTVEPPPEPALLTLQHPQRLHRHLFLAGLHQQQRSAEPMRLSMDPPMPELQGGQQEQELRQLLNKDKSKRSAVASSVVKQKLAEVILKKQQAALERTVHPSSPSIPYRTLEPLDTEGAARSVLSSFLPPVPSLPTEPPEHFPLRKTVSEPNLKLRYKPKKSLERRKNPLLRKESAPPSLRRRPAETLGDSSPSSSSTPASGCSSPNDSEHGPNPALGSEADGDRRTHSTLGPRGPVLGNPHAPLFLHHGLEPEAGGTLPSRLQPILLLDPSVSHAPLWTVPGLGPLPFHFAQPLLTTERLSGSGLHRPLNRTRSEPLPPSATASPLLAPLQPRQDRLKPHVQLIKPAISPPQRPAKPSEKPRLRQIPSAEDLETDGGGVGPMANDGLEHRESGRGPPEGRGSISLQQHQQVPPWEQQHLAGRLSQGSPGDSVLIPLAQVGHRPLSRTQSSPAAPVSMLSPEPTCQTQVLNSSET	increased the enzymatic activity of 6PGD to similar levels to that of the WT HDAC7	
